Test results from US20260285971 (published 2026).

T1: human GPRC5D (human)
T1 chain: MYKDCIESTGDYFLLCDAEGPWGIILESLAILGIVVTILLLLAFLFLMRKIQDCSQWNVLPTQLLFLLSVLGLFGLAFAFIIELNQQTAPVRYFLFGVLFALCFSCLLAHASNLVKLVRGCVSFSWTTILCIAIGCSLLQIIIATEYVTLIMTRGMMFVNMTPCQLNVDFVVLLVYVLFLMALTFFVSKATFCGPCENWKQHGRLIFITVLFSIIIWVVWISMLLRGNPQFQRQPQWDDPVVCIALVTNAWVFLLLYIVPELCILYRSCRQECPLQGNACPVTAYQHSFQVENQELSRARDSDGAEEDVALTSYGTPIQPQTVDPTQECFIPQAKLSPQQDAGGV


Key:
human GPRC5D [1] = target: T1, human GPRC5D; assay: FACS RPMI-8226
human GPRC5D [2] = target: T1, human GPRC5D; assay: FACS NCI-H929
human GPRC5D [3] = target: T1, human GPRC5D; assay: ELISA
human GPRC5D [4] = target: T1, human GPRC5D; assay: FACS RPMI-8226
human GPRC5D [5] = target: T1, human GPRC5D; assay: FACS NCI-H929
human GPRC5D [6] = target: T1, human GPRC5D; assay: FACS molp-8
human GPRC5D [7] = target: T1, human GPRC5D; assay: FACS molp-8
human GPRC5D [8] = target: T1, human GPRC5D; assay: ELISA
human GPRC5D [9] = target: T1, human GPRC5D; assay: FACS RPMI-8226
human GPRC5D [10] = target: T1, human GPRC5D; assay: FACS molp-8
human GPRC5D [11] = target: T1, human GPRC5D; assay: FACS molp-8
human GPRC5D [12] = target: T1, human GPRC5D; assay: FACS NCI-H929
human GPRC5D [13] = target: T1, human GPRC5D; assay: ELISA
human GPRC5D [14] = target: T1, human GPRC5D; assay: ELISA
human GPRC5D [15] = target: T1, human GPRC5D; assay: FACS NCI-H929
human GPRC5D [16] = target: T1, human GPRC5D; assay: FACS RPMI-8226
human GPRC5D [17] = target: T1, human GPRC5D; assay: FACS NCI-H929
human GPRC5D [18] = target: T1, human GPRC5D; assay: FACS molp-8
human GPRC5D [19] = target: T1, human GPRC5D; assay: FACS CHOK1-human GPRC5D
human GPRC5D [20] = target: T1, human GPRC5D; assay: FACS RPMI-8226

Row | Binder | EC50 (human GPRC5D [6]) [µM] | EC50 (human GPRC5D [9]) [µM] | EC50 (human GPRC5D [13]) [nM] | EC50 (human GPRC5D [15]) [µM] | EC50 (human GPRC5D [17]) [nM] | EC50 (human GPRC5D [18]) [nM] | EC50 (human GPRC5D [19]) [µM] | EC50 (human GPRC5D [20]) [µM] | other results
1 | JNJ7564-hIgG1 (antibody, V domains shown) VH: QVQLVQSGAEVKKPGASVKVSCKASGYSFTGYTMNWVRQAPGQGLEWMGLINPYNSDTNYAQKLQGRVTMTTDTSTSTAYMELRSLRSDDTAVYYCARVALRVALDYWGQGTLVTVSS VL: DIQMTQSPSSLSASVGDRVTITCKASQNVATHVGWYQQKPGKAPKRLIYSASYRYSGVPSRFSGSGSGTEFTLTISNLQPEDFATYYCQQYNRYPYTFGQGTKLEIK | 0.0269 | ~5.46 | 0.0379 | 0.0179 |  |  |  |  | EC50 (human GPRC5D [1]): ~635 µM; EC50 (human GPRC5D [2]): 0.00697 µM; EC50 (human GPRC5D [3]): 0.0211 nM; EC50 (human GPRC5D [4]): ~1360 µM; EC50 (human GPRC5D [5]): 0.0256 µM; EC50 (human GPRC5D [7]): 0.0413 µM; EC50 (human GPRC5D [8]): 0.028 nM; EC50 (human GPRC5D [10]): 0.0459 µM; EC50 (human GPRC5D [11]): 0.0344 µM; EC50 (human GPRC5D [12]): 0.00988 µM; EC50 (human GPRC5D [14]): 0.0559 nM; EC50 (human GPRC5D [16]): 0.0734 µM
2 | HAB01-H7 (antibody, V domains shown) VH: EVQLVESGGGLVQPGGSLRLSCAASGYAGGIAYMAWFRQAPGKGREGVALIATSGTTSYADSVKGRFTISRDGAKNSVYLQMNSLRAEDTAVYYCAAKSRLGWPGLETSQFKYWGQGTMVTVSS | 0.00076 | 0.0037 | 0.0264 | 0.000916 |  |  |  |  | 
3 | MCARH109-scFv-huFc (antibody, V domains shown) VH: QVQLVESGGGLVHPGGSLRLSCAASGFTFRSHSMNWVRQAPGKGLEWVSSISSDSTYTYYADSVKGRFTISRDNAKNSLYLQMNSLRAEDTAVYYCARSGGQWKYYDYWGQGTLVTVSS VL: SSELTQDPAVSVALGQTVRITCQGDSLRSYYASWYQQKPGQAPVLVIYGKNNRPSGIPDRFSGSSSGNTASLTITGAQAEDEADYYCNSRDSSGNPPVVFGGGTKLTVL |  |  |  |  | 2.45 | 3.23 | 0.000286 |  | 
4 | 5F11-hIgG1 (antibody, V domains shown) VH: EVQLVESGGGLVQPGRSLKLSCAASGFSFSNYGMAWVRQAATKGLEWVASISTGGGNTYYRDSVKGRFIVSRDNAKNTQYLQMDSLRSEDTATYYCTRHDRGGLYWGQGVMVTVSS VL: DIVMTQAPLSVSVTPGESASISCRSSKSLLHSNGITYVYWYFQKPGKSPQVLIYRMSNLASGVPDRFSGSGSETDFTLKISRVEAEDVGIYHCGQLLENPYTFGAGTELELK | 0.00292 | 0.0265 | 0.0498 | 0.00305 |  |  |  |  | EC50 (human GPRC5D [1]): 0.0121 µM; EC50 (human GPRC5D [2]): 0.00196 µM; EC50 (human GPRC5D [3]): 0.0371 nM; EC50 (human GPRC5D [4]): 0.0187 µM; EC50 (human GPRC5D [5]): 0.0029 µM; EC50 (human GPRC5D [7]): 0.00564 µM; EC50 (human GPRC5D [8]): 0.0295 nM; EC50 (human GPRC5D [10]): 0.0126 µM; EC50 (human GPRC5D [11]): 0.00368 µM; EC50 (human GPRC5D [12]): 0.00269 µM; EC50 (human GPRC5D [14]): 0.0659 nM; EC50 (human GPRC5D [16]): 0.00707 µM
5 | Lab05-huFc (antibody, V domains shown) VH: QVQLVESGGGLVQPGGSLRLSCAASGILVSAYVMAWYRQPPGKQRDLVARLSTDGRTTYADSVKGRFTISKDNAKSTLYLQMNTLKSEDTAVYYCYAERSRGHWGQGTQVTVSS |  |  |  |  | 0.111 | 0.0616 | 0.000279 | 0.0316 | 
6 | HAB05-H3 (antibody, V domains shown) VH: EVQLVESGGGLVQPGGSLRLSCAASGILVSAYVMAWYRQAPGKQRVLVSRLSTDGRTTYADSVKGRFTISKDNAKSTLYLQMNSLRAEDTAVYYCYAERSRGHWGQGTMVTVSS |  |  |  |  | 0.0861 | 0.0433 | 0.000249 | 0.00012 | 
7 | HAB05-H2 (antibody, V domains shown) VH: EVQLVESGGGLVQPGGSLRLSCAASGILVSAYVMAWYRQAPGKQRVLVSRLSTDGRTTYADSVKGRFTISKDNAKNTLYLQMNSLRAEDTAVYYCYAERSRGHWGQGTMVTVSS |  |  |  |  | 0.202 | 0.0839 | 0.000514 | 0.000141 | 
8 | HAB06-H5 (designed binder) EVQLVESGGGLVQPGGSLRLSCAASGFTFSSAWMYWFRQAPGKGLEWVSHIDPRGGSTYYADSVKGRFTISRDNAKNTLYLQMNSLRAEDTAVYYCAKDLRGLGRGQGTQVTVSS |  |  |  |  | 0.38 | 0.178 | 0.000241 | 0.000387 | 
9 | HAB06-H1 (designed binder) EVQLVESGGGLVQPGGSLRLSCAASGFTFSSAWMYWFRQAPGKGLEWVSHIDPRGGSTYYADSVKGRFTISRDNSKNTLYLQMNSLRAEDTAVYYCAKDLRGLGRGQGTMVTVSS |  |  |  |  | 0.166 | 0.14 | 0.000324 | 0.000406 | 
10 | Lab06-huFc (designed binder) QVQLVESGGGLVQPGGSLRLSCTASGFTFSSAWMYWFRQAPGKGLEWVSHIDPRGGSTYYADSVKGRFTISRDNAKNTLYLQMRSLKSEDTAVYYCAKDLRGLGRGQGTQVTVSS |  |  |  |  | 0.273 | 0.132 | 0.00022 | 0.000261 | 
